According to paper PMC3493965 (The Journal of Biological Chemistry, 2012):

Target: TaCDC48-L745W (W466F, W541Y, L745W) (T. acidophilum, UniProt O05209 1-745, W466F | W541Y | L745W)
Test: tryptophan fluorescence shift

Chain of TaCDC48-L745W (W466F, W541Y, L745W) (O05209 whole entry W466F/W541Y/L745W): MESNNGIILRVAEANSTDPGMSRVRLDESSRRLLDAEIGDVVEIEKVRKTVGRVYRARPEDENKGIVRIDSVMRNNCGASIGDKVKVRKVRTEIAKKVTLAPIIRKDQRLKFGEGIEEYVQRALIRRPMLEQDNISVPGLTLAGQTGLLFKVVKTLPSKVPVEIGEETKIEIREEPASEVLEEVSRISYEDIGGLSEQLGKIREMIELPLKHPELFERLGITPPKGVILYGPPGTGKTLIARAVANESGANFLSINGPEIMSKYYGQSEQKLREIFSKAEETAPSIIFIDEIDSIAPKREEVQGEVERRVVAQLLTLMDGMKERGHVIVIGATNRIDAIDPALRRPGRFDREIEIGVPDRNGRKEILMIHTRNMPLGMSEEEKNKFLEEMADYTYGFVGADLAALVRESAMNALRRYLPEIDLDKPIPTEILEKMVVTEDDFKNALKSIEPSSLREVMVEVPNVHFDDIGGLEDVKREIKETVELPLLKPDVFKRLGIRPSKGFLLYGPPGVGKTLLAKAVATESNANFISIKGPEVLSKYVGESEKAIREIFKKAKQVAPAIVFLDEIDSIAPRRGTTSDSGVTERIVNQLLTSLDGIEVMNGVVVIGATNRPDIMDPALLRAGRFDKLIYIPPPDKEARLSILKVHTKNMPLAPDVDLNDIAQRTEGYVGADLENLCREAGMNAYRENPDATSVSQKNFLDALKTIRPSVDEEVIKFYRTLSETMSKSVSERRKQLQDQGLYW

binding result: binds
B1: Thermoplasma acidophilum 20S proteasome core particle, recombinant (complex, T. acidophilum)
chain 1: MQQGQMAYDRAITVFSPDGRLFQVEYAREAVKKGSTALGMKFANGVLLISDKKVRSRLIEQNSIEKIQLIDDYVAAVTSGLVADARVLVDFARISAQQEKVTYGSLVNIENLVKRVADQMQQYTQYGGVRPYGVSLIFAGIDQIGPRLFDCDPAGTINEYKATAIGSGKDAVVSFLEREYKENLPEKEAVTLGIKALKSSLEEGEELKAPEIASITVGNKYRIYDQEEVKKFL
chain 2: TTTVGITLKDAVIMATERRVTMENFIMHKNGKKLFQIDTYTGMTIAGLVGDAQVLVRYMKAELELYRLQRRVNMPIEAVATLLSNMLNQVKYMPYMVQLLVGGIDTAPHVFSIDAAGGSVEDIYASTGSGSPFVYGVLESQYSEKMTVDEGVDLVIRAISAAKQRDSASGGMIDVAVITRKDGYVQLPTDQIESRIRKLGLIL
